Test [1] concerns the target T1, human complement protein C6 (human, UniProt P13671 22-934).
T1 construct: also called human C6; C6 antigen
Kind of test: SPR (Biacore 8K), IgG on protein G chip, C6 0.03-25 nM 3-fold series, 1:1 fit. Here is the method: (§1) The kinetics of C6 binding was compared for the purified chimeric and lead humanized C601 using surface plasmon resonance (SPR, Biacore 8K). IgG were captured on a protein G sensor chip and binding of C6 measured using a three-fold concentration series of C6 from 0.03 nM-25 nM (FIG. 5). In a second experiment, a two-fold concentration series from 0.31 nM-20 nM C6 was used (FIG. 6). For all antibodies, binding of C6 occurred in a concentration-dependent manner and data could be fitted using a 1:1 model to calculate the association rate (kₒₙ), dissociation rates (kd) and affinity constant (KD). The kinetic data are shown in Table 5, which indicates only small differences between the parameters determined from the two independent experiments.
(§2) Binding ELISAs used Nunc Maxisorp 384-well plates, wells coated with C6, C5b,6 complex or C5 (Complement Technology Inc, TX) and goat anti-human IgG (Fab specific) peroxidase secondary antibodies (Sigma-Aldrich, A0293) for detection. For the thermal stability assay, IgG supernatants were diluted to their EC₈₀ concentration, incubated at different temperatures for 10 min and C6 binding measured by ELISA with the binding signal plotted against temperature. Kinetics of C6 binding were measured by capturing antibodies from supernatant samples using Protein G biosensors and performing a 20 min association step with 2.5 nM C6 and a 20 min dissociation step using the Octet RED96. Precise kinetic measurements were obtained by surface plasmon resonance (Biacore 8K, Cytiva). The IgG were captured on a protein G sensor chip. Binding of C6 measured using a three-fold concentration series of C6 from 0.03 nM-25 nM and data were fitted using a 1:1 model in two independent experiments.

Test [2] has as its target T1, human complement protein C6. Briefly: SPR (Biacore 8K), IgG on protein G chip, C6 0.31-20 nM 2-fold series, 1:1 fit. Here is the method:
as §1
For orientation: In SPR one partner is held on a chip, and binding of the other changes the refractive index at the surface.

Test [3] has the same target. Briefly: SPR (Biacore 8K). Here is the method: as §1, §2
Test [4] shares this target. Briefly: ELISA, C6-coated wells.
Test [5] has the same target. Kind of test: SPR (Biacore 8K). Here is the method: as §1
Binding ELISAs used Nunc Maxisorp 384-well plates, wells coated with C6, C5b,6 complex or C5 (Complement Technology Inc, TX) and goat anti-human IgG (Fab specific) peroxidase secondary antibodies (Sigma-Aldrich, A0293) for detection. For the thermal stability assay, IgG supernatants were diluted to their EC₈₀ concentration, incubated at different temperatures for 10 min and C6 binding measured by ELISA with the binding signal plotted against temperature. […] Binding of C6 measured using a three-fold concentration series of C6 from 0.03 nM-25 nM and data were fitted using a 1:1 model in two independent experiments.
This is another data set of the same source.

For test [6] the target is unchanged. Briefly: C6-binding ELISA, A650 nm; sample 'PBS, non-incubated' (kept at 4 C). Here is the method: The C6-binding ELISA was then used to compare the binding abilities of the C601 antibodies that had been incubated in the 3 different sera to antibody samples that were incubated in PBS at 37 C or kept at 4 C (non-incubated).
as §2, with “Precise kinetic measurements were obtained by surface plasmon resonance (Biacore 8K, Cytiva). The IgG were captured on a protein G sensor chip.” left out
The Uncle instrument (Unchained Labs) was used to monitor unfolding via intrinsic fluorescence and aggregation by static light scattering across a temperature gradient to obtain melting temperatures (Tₘ). […] Isoelectric points were determined by capillary isoelectric focusing using a PA800+ (Beckman Coulter).

For test [7] the target is unchanged. Described as above. Here is the method: For the serum stability assessment, samples of the purified candidate antibodies are normally incubated in mouse, human and cynomolgus serum at 37 C for 28 days and then tested in an antigen-binding ELISA. Since the anti-C6 antibodies are expected to bind to both human and cynomolgus C6 but not mouse C6, we anticipated that incubating in human or cynomolgus sera would reduce ELISA binding due to occupation of the antibody binding sites by C6 protein from the sera. Therefore, the chimeric and humanized antibodies were tested with human and mouse sera and with human sera from which the C6 protein has been depleted. The C6-binding ELISA was then used to compare the binding abilities of the C601 antibodies that had been incubated in the 3 different sera to antibody samples that were incubated in PBS at 37 C or kept at 4 C (non-incubated).
The Uncle instrument (Unchained Labs) was used to monitor unfolding via intrinsic fluorescence and aggregation by static light scattering across a temperature gradient to obtain melting temperatures (Tₘ). […] Isoelectric points were determined by capillary isoelectric focusing using a PA800+ (Beckman Coulter). […]
The source holds these as a separate data set.

Test [8] addresses human complement protein C5 (human, UniProt P01031 19-673; P01031 678-1676). Briefly: ELISA, C5-coated wells. (In general: ELISA stands for enzyme-linked immunosorbent assay.)
Test [9] deals with T1, human complement protein C6. Kind of test: ELISA, expression supernatant, anti-human IgG (Fab-specific) detection. Here is the method:
The chimeric molecules, MoC601 HuG4K and MoC601 HuG1KFab, were tested for C6 binding in the form of expression supernatants. In this experiment, the human molecules were detected with an HRP-conjugated goat anti-human kappa chain reagent, which gave relative low signals. However, the binding of both chimeric molecules to C6 was confirmed. The EC₅₀ value for MoC601 HuG4K (0.43 nM) was higher than that of the mouse antibody (0.07 nM), though this was lower than in previous experiments. A further experiment was performed to find a more suitable anti-human antibody detection reagent. MoC601 HuG4K from expression supernatant was detected with three different secondary antibodies. Both anti-human IgG Fc-specific and Fab-specific detection gave higher signals than the anti-kappa chain reagent but the Fc-specific detection yielded a very low EC₅₀ (0.03 nM).

The term Kd denotes the concentration at which binding is half-saturated. A low value points to a tighter complex. For orientation: koff means the first-order rate constant of dissociation. A higher koff goes with a short-lived complex. In general, kon refers to the rate constant with which the complex forms. By EC50 is commonly meant the concentration that produces a half-maximal response. Read a low EC50 as an effect from little substance.

T1 sequence (P13671 22-934 limits assumed): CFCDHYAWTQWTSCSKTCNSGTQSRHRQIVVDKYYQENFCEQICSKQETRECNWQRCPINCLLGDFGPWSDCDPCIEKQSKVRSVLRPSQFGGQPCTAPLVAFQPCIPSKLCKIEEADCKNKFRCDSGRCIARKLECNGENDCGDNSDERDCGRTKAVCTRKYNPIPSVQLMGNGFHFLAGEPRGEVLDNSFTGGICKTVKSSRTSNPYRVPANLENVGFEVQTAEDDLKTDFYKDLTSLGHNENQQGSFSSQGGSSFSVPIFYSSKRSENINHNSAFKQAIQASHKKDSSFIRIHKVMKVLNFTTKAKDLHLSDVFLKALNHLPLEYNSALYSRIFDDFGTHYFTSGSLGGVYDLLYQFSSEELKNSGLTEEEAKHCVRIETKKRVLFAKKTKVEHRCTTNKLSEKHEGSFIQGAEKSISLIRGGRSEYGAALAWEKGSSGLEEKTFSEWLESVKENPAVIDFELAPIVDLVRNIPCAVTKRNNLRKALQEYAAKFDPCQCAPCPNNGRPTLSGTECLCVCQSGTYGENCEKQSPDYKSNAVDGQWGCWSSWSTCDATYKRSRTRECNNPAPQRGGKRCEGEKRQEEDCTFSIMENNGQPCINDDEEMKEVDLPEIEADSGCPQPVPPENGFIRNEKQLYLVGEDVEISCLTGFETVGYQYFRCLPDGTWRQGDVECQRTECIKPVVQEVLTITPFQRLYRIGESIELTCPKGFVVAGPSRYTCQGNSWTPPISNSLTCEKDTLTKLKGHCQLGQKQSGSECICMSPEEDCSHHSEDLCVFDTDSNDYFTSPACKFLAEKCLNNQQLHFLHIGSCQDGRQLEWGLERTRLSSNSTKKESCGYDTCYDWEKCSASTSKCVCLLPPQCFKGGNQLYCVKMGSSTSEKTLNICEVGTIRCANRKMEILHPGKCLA
Sequence of human complement protein C5 (P01031 19-673 limits assumed, chain 1 of 2): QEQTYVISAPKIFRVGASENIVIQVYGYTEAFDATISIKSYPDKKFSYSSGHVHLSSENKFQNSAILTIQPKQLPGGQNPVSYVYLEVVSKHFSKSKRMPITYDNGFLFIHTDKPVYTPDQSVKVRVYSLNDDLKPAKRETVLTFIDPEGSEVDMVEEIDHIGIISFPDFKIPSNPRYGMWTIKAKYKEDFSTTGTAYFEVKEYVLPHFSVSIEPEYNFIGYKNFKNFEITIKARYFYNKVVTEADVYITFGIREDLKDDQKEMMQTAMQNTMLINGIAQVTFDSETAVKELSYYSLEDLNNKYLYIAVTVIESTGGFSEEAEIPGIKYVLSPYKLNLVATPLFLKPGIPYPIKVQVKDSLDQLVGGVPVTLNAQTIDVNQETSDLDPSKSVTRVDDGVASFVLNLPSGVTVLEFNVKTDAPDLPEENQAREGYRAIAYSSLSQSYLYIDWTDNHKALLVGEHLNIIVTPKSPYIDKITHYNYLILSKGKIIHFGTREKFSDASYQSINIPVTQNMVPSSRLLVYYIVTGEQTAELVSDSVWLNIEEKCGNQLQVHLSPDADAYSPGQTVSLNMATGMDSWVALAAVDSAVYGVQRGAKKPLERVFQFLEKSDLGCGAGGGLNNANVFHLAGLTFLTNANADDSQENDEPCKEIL
Sequence of human complement protein C5 (P01031 678-1676 limits assumed, chain 2 of 2): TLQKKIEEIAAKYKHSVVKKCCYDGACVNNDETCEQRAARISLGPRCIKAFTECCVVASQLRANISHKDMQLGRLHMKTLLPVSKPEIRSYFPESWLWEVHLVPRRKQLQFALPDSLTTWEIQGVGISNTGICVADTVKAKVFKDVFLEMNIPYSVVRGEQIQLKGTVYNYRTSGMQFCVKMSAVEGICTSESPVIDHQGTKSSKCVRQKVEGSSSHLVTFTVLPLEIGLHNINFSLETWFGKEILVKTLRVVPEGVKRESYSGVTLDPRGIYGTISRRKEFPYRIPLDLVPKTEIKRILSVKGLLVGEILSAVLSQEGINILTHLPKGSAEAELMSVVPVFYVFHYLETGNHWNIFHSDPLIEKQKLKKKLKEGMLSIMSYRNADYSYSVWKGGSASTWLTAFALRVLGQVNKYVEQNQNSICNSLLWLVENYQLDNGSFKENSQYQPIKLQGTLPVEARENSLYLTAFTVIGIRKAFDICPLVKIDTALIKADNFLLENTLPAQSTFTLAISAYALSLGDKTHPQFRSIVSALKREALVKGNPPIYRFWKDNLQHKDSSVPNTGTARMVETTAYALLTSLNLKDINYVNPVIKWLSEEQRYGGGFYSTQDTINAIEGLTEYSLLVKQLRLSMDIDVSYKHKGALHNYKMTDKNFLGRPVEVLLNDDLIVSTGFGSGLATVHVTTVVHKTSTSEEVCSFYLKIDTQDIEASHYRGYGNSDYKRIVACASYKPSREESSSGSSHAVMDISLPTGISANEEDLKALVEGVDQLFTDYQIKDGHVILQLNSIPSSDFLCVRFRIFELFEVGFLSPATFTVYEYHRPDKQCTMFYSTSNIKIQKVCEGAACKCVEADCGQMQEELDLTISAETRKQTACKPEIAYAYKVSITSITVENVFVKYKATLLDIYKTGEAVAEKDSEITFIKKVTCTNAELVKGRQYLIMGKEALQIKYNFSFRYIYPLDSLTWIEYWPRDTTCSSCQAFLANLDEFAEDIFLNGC

B1: C601HFKC4 HuG4K (antibody, human IgG4 S228P, kappa)
heavy: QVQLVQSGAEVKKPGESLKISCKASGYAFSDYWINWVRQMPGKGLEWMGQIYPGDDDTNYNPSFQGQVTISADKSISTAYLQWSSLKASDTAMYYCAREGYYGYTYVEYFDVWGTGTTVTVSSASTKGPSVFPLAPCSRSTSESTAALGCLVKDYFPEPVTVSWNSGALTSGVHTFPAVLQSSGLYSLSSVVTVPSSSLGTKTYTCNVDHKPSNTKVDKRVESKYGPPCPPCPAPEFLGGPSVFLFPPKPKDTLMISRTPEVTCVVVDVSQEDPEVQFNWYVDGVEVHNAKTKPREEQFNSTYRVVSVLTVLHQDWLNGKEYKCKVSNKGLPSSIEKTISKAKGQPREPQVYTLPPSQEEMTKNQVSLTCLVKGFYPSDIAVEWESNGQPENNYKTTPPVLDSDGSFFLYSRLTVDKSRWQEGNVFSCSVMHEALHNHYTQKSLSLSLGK
light: QIVLTQSPATLSLSPGERATLSCRASSSVSYLHWYQQKPGQSPRLWIYDTSKRATGIPARFSGSGSGTDYTLTISSLEPEDFAVYYCQQWTSNPLTFGQGTKLEIKRTVAAPSVFIFPPSDEQLKSGTASVVCLLNNFYPREAKVQWKVDNALQSGNSQESVTEQDSKDSTYSLSSTLTLSKADYEKHKVYACEVTHQGLSSPVTKSFNRGEC
notes: also called 3713; clone 3713
Regarding B1, the Kd in test [1] amounted to 0.343 nM; in test [2], 0.226 nM; in test [3], 0.343 nM; in test [5], 0.343 nM. Besides, the koff in test [1] worked out at 0.000389 s⁻¹; in test [2] it was 0.000306 s⁻¹. For the same molecule, the association rate constant (kon) came to 1.13e+06 M⁻¹ s⁻¹ in [1] and 1.36e+06 M⁻¹ s⁻¹ in test [2]. Further, the half-maximal effective concentration (EC50) in test [4] is 0.19 nM; in [6], 0.17 nM.

B2: MoC601 HuG4K (chimeric C601 antibody) (antibody, human IgG4 S228P, kappa, V domains shown)
VH: QVQLQQSGAELVKPGASVKISCKASGYAFSDYWMNWVKQRPGKGLEWIGQIYPGDDDTNYNGKFKGKATLTADKSSSTAYMQLSSLTSEDSAVYFCAREGYYGYTYVEYFDVWGTGTTVTVSS
VL: QIVLTQSPAIMSVSPGEKVTLTCSASSSVSYMHWYQQKSGTSPKRWIYDTSKLASGVPARFSGSGSGTSYSLTISSMEAEDAATYYCQQWTSNPLTFGAGTKLELRR
notes: also called chimeric antibody; chimeric 1C9
For B2, the Kd in test [1] was 0.527 nM; in test [2], 0.459 nM; in test [3], 0.527 nM; in test [5], 0.527 nM. The koff worked out at 0.000448 s⁻¹ in test [1] and 0.000413 s⁻¹ in test [2]. Also, the kon in test [1] is 850000 M⁻¹ s⁻¹; in [2], 900000 M⁻¹ s⁻¹. For the same molecule, the half-maximal effective concentration (EC50) in test [7] was found to be 0.18 nM; in [9], 0.3 nM; in test [4], 0.2 nM. For the same molecule, in [8], the binding result is “no binding”.

Source of the values: patent US20260125455A1 (CLEVELAND CLINIC FOUNDATION, published 2026).
